These results are taken from patent US20260217797A1.

Broadly, the Kd is a measure of binding affinity in units of concentration. Lower therefore signals tighter binding.

For experiment [1], the target named is SARS-CoV-2 P.1 Spike (Gamma) (SARS-CoV-2) (UniProt P0DTC2). In words: Octet BLI single point, monovalent. On the technique in general: In BLI a coated tip is dipped into the sample, and binding shifts an interference pattern.
In experiment [2] the target is SARS-CoV-2 B.1.617.2 (Delta) RBD (SARS-CoV-2) (UniProt P0DTC2). In words: Octet BLI single point, monovalent.
Experiment [3] addresses SARS-CoV-2 B.1.351 (Beta) RBD (SARS-CoV-2) (UniProt P0DTC2). In words: Octet BLI single point, monovalent.
Experiment [4] concerns the target SARS-CoV-2 B.1.617.1 (Kappa) RBD (SARS-CoV-2) (UniProt P0DTC2). The experiment can be described thus: Octet BLI single point, monovalent.
The target in experiment [5] is SARS-CoV-2 Gamma (P.1) spike protein (on reporter virus particles) (SARS-CoV-2) (UniProt P0DTC2). In words: cell-based or functional assay.
Experiment [6] has as its target SARS-CoV-2 Beta (B.1.351) spike protein (on reporter virus particles) (SARS-CoV-2) (UniProt P0DTC2). In words: cell-based or functional assay.
Experiment [7] concerns the target SARS-CoV-2 Epsilon (B.1.427/429) spike protein (on reporter virus particles) (SARS-CoV-2) (UniProt P0DTC2). The experiment can be described thus: cell-based or functional assay.
Experiment [8] deals with SARS-CoV-2 Alpha (B.1.1.7) spike protein (on reporter virus particles) (SARS-CoV-2) (UniProt P0DTC2). In words: cell-based or functional assay.

For RGN10987 (antibody), the Kd in experiment [1] is 12.5 nM; in experiment [2] it was 9.65 nM; in experiment [3], 15 nM; in experiment [4], 3.05 nM.

As to RGN10933 (antibody), the PsV neutralization IC50 in experiment [5] turned out to be 3.89 µg/mL; in experiment [6], 0.897 µg/mL; in experiment [7], 0.0074 µg/mL; in experiment [8], 0.0064 µg/mL. The PsV neutralization IC90 in experiment [5] was 16.2 µg/mL; in experiment [6] it was 8.28 µg/mL; in experiment [7], 0.058 µg/mL; in experiment [8] it was 0.081 µg/mL. The Kd turned out to be 2.7 nM in experiment [2] and 12 nM in experiment [4].
